Test results as given in PMC12586476, “Molecular mechanism and structural models of protein-mediated copper transfer to the Arabidopsis thaliana ethylene receptor ETR1 at the ER membrane” (Scientific Reports, 2025).

T1: ETR1_GAF^1–316 (truncation of the Arabidopsis thaliana ethylene receptor ETR1 containing the transmembrane … (Arabidopsis thaliana, UniProt P49333 1-316, AlexaFluor 488-NHS (amine-reactive dye) label))
T1 construct: Membrane protein kept in Fos-Choline-14; source: E. coli C41(DE3)∆ompF∆acrAB, membranes solubilized in Fos-Choline-14, purified (Ni-NTA IMAC)
T1 sequence (looked up): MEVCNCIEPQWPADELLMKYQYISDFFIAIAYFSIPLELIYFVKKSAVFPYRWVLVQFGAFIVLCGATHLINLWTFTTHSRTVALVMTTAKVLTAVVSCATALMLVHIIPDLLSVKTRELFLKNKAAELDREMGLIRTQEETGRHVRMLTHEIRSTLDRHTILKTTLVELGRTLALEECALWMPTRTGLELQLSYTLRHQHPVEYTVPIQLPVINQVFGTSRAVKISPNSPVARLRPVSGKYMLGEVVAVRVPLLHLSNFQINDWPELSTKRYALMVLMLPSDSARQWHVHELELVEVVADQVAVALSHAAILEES

T2: Arabidopsis copper chaperone CCH (Arabidopsis thaliana, UniProt O82089 1-121, AlexaFluor 488 label)
T2 construct: Copper chaperone CCH, Arabidopsis thaliana
T2 sequence (looked up): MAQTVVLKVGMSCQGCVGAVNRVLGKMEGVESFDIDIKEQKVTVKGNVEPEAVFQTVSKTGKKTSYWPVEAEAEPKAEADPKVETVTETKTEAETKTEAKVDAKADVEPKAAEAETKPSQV

B1: RAN1 degenerate metal binding domain 3 (MBD3) (domain or fragment, Arabidopsis thaliana, UniProt Q9S7J8 205-283, looked up)
chain: QQDKLVLRVDGILNELDAQVLEGILTRLNGVRQFRLDRISGELEVVFDPEVVSSRSLVDGIEEDGFGKFKLRVMSPYER
notes: Copper-transporting P-type ATPase RAN1 (HMA7), Arabidopsis thaliana, MBD3, AA 205-283; Cloned into pETEV16b; also called HMA7 MBD3; source: E. coli BL21 Gold (DE3), purified (Ni-NTA IMAC, SEC); not shown: His tag (deca-histidine), N-terminal, kept
B2: RAN1 metal binding domain 1 (MBD1) (domain or fragment, Arabidopsis thaliana, UniProt Q9S7J8 55-130, looked up)
chain: LRKIQVGVTGMTCAACSNSVEAALMNVNGVFKASVALLQNRADVVFDPNLVKEEDIKEAIEDAGFEAEILAEEQTQ
notes: Copper-transporting P-type ATPase RAN1 (HMA7), Arabidopsis thaliana, MBD1, AA 55-130; Cloned into pETEV16b (pET-16b derivative with a TEV site); no tag cleavage is described; also called HMA7 MBD1; source: E. coli BL21 Gold (DE3), purified (Ni-NTA IMAC, SEC)
B3: RAN1 metal binding domain 2 (MBD2) (domain or fragment, Arabidopsis thaliana, UniProt Q9S7J8 132-207, looked up)
chain: TLVGQFTIGGMTCAACVNSVEGILRDLPGVKRAVVALSTSLGEVEYDPNVINKDDIVNAIEDAGFEGSLVQSNQQD
notes: Copper-transporting P-type ATPase RAN1 (HMA7), Arabidopsis thaliana, MBD2, AA 132-207; Cloned into pETEV16b (pET-16b derivative with a TEV site); no tag cleavage is described; also called HMA7 MBD2; source: E. coli BL21 Gold (DE3), purified (Ni-NTA IMAC, SEC)

biological target: T1, ETR1_GAF^1–316 (truncation of the …); experiment: MST; AlexaFluor488-labelled ETR1_GAF 50 nM, MBDs titrated 100 µM to 24.4 nM; 300 mM NaCl, 50 mM HEPES pH 7.2 with Fos-Choline-14 and glycerol; room temperature; thermophoresis with T-jump; one-site binding model; apparent KD; settings: both partners purified

| Kd | Binder |
| --- | --- |
| 8.3 ± 6.6 µM | B1 |
| 13.3 ± 4.4 µM | B2 |
| 22.3 ± 12.1 µM | B3 |

biological target: Arabidopsis copper transport protein ATX1 (Arabidopsis thaliana); experiment: MST; AlexaFluor488-labelled ATX1 or CCH 100 nM, MBDs titrated (MBD1 300 µM to 0.19 nM, MBD2 100 µM to 0.19 nM, MBD3 100 µM to 0.06 nM); 300 mM NaCl, 50 mM HEPES pH 7.2 with Tween20 and glycerol; room temperature; initial fluorescence analysed; one-site binding model; apparent KD; settings: not given

| Kd | Binder |
| --- | --- |
| 105 nM | B1 |
| 155 nM | B2 |
| 239 nM | B3 |

biological target: T2, Arabidopsis copper chaperone CCH; experiment: as above; settings: both partners purified

| Kd | Binder |
| --- | --- |
| 88.5 ± 78.2 nM | B1 |
| 3160 ± 684 nM | B2 |
| 2280 ± 990 nM | B3 |
